The record followed here is IntAct's records for PubMed 22483105.

The target in the experiment is ubc4_yeast UBC4 (UniProt P15731).
Sequence of ubc4_yeast UBC4 (P15731 whole entry): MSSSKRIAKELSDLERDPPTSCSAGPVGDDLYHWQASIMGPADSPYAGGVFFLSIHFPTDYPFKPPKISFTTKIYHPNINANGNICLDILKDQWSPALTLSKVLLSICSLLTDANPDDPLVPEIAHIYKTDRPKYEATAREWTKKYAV

Consider “E3 ubiquitin-protein ligase RSP5 (Saccharomyces cerevisiae), P39940 D614M”, for which the “effect of a mutation on the interaction” value was “decreasing interaction strength”. Consider “E3 ubiquitin-protein ligase RSP5 (Saccharomyces cerevisiae), P39940 L607M”, for which the “effect of a mutation on the interaction” value is reported as “decreasing interaction strength”. As for “E3 ubiquitin-protein ligase RSP5 (Saccharomyces cerevisiae), P39940 S594M”, the “effect of a mutation on the interaction” value is recorded as “decreasing interaction strength”. As to “E3 ubiquitin-protein ligase RSP5 (Saccharomyces cerevisiae), P39940 W597M”, the “effect of a mutation on the interaction” value is “disrupting interaction strength”. On to “E3 ubiquitin-protein ligase RSP5 (Saccharomyces cerevisiae), P39940 Y647M”, for which the “effect of a mutation on the interaction” value is recorded as “decreasing interaction strength”.
